We go through six substances from patent US20170319655A1.

In assay [1] the target is flagellin on flagellin-expressing Pseudomonas aeruginosa wild type bacteria (Pseudomonas aeruginosa). The assay is described as follows: cell-based or functional assay.
Assay [2] has as its target MUC1-ED on Ad-NEU1-infected airway epithelial cells (A549 cells; SAECs), desialylated by overexpressed NEU1 (human) (UniProt P15941). The assay is described as follows: cell-based or functional assay.

With “shed MUC1-ED from culture supernates of flagellin-stimulated A549 cells (from UniProt P15941 24-1158) (receptor)”, the MUC1-ED concentrations capable of inhibiting Pa adhesion in vitro in assay [1] is below 0.63 µg/mL. In assay [1], “desialylated shed MUC1-ED from culture supernates of Ad-NEU1-infected A549 cells (from UniProt P15941 24-1158) (receptor)” showed an MUC1-ED concentrations capable of inhibiting Pa adhesion in vitro below 0.63 µg/mL and a reduction of Pa adhesion to A549 monolayers, against MUC1-ED from Ad-GFP-infected ECs of 65%. Take “E. coli-expressed deglycosylated MUC1-ED (from E. coli transformed with pMUC1) (from UniProt P15941 24-1097) (receptor)”: in assay [1], the reduction of Pa adhesion to A549 monolayers, against the empty vector control worked out at 93%. In assay [1], “MUC1-ED from supernates of airway ECs cultured with the O-glycosylation inhibitor GalNAc-O-bn (from UniProt P15941 24-1158) (receptor)” registered a reduction of Pa adhesion to A549 monolayers, against its control of 88%. Take “desialylated MUC1-ED in bronchoalveolar lavage fluids (BALFs) from Pa-colonized patients (from UniProt P15941 24-1158) (receptor)”: in assay [1], the inhibition of Pa adhesion to A549 cells, against BALFs from noncolonized subjects stood at 52.9% and the inhibition of Pa adhesion to A549 cells, against BALFs from patients colonized with nonPa microorganisms turned out to be 42.1%. In assay [2], “flagellin on flagellin-expressing Pseudomonas aeruginosa wild type bacteria (ligand)” returned a Pa adhesion to Ad-NEU1-infected A549 cells (CFUs bound), against Ad-GFP-infected ECs of 2 fold and a Pa adhesion to Ad-NEU1-infected SAECs (CFUs bound), against Ad-GFP-infected SAECs of 3.4 fold.
